Experimental data published in patent publication US20250154231A1 (RQBIO COVID, published 2025).
Like-named read-outs stand apart in the source and are kept apart here.

Experiments:
Omicron BA.2 RBD [1] = biological target: T1, Omicron BA.2 RBD (SARS-CoV-2, UniProt P0DTC2 333-528)
Omicron BA.2 RBD [2] = biological target: T1, Omicron BA.2 RBD; remark: listed apart in the source
Omicron BA.2 RBD [3] = biological target: T1, Omicron BA.2 RBD; remark: listed apart in the source
Omicron BA.2 RBD [4] = biological target: T1, Omicron BA.2 RBD; remark: listed apart in the source
Omicron BA.2 RBD [5] = biological target: T1, Omicron BA.2 RBD; remark: listed apart in the source
Omicron BA.1 RBD = biological target: T2, Omicron BA.1 RBD (SARS-CoV-2, UniProt P0DTC2 333-528); test: ELISA
T2 construct: domain: RBD

Omicron BA.2 RBD [6] = biological target: T1, Omicron BA.2 RBD; remark: listed apart in the source
Omicron BA.2 RBD [7] = biological target: T1, Omicron BA.2 RBD; remark: listed apart in the source
Omicron BA.2.12.1 RBD [8] = biological target: T3, Omicron BA.2.12.1 RBD (SARS-CoV-2, UniProt P0DTC2 333-528)
Omicron BA.2 RBD [9] = biological target: T1, Omicron BA.2 RBD; remark: listed apart in the source
Omicron BA.2 RBD [10] = biological target: T1, Omicron BA.2 RBD; remark: listed apart in the source
Omicron BA.2.12.1 RBD [11] = biological target: T3, Omicron BA.2.12.1 RBD; remark: listed apart in the source
Omicron BA.2 RBD [12] = biological target: T1, Omicron BA.2 RBD; remark: listed apart in the source

B1: Omi-42 Fab (Fab, V domains shown)
VH: EVQLLETGGGLVQPGRSLRLSCAASGFPFDDYAIHWVRLAPGKGLEWVSSISWDSGSIGYADSVKGRFTISRDNAKNSLYLQMNSLRAEDTALYYCAKGAFPGYSSGWYYGLDVWGQGATVTVSS
VL: QSVVTQPPSASGSLGQSVTISCTGTSSDVGGYNYVSWYQQHPGKAPKLMIFEVSKRPSGVPDRFSGSKSGNTASLTVSGLQAEDEADYYCSSYAGNKGVFGGGTKLTVL
- Kd (Omicron BA.2 RBD [1]): 0.99 nM
- T1/2 (Omicron BA.2 RBD [1]): 131 min
- koff (Omicron BA.2 RBD [1]): 8.8e-05 s⁻¹
- kon (Omicron BA.2 RBD [1]): 89000 M⁻¹ s⁻¹

B2: Omi-20 Fab (Fab, V domains shown)
VH: EVQLVESGGGLVQPGGSLRLSCEASEITVSSNYMNWVRQAPGKGLEWVSVLFAGGTTYYADSVKGRFTISRDNSKNTLYLQMNTLRIEDTAIYYCARDLVAYGVDVWGQGTTVTVSS
VL: AIQMTQSPSFLSASVGDRVTITCRASQGISGDLAWYQQKPGKAPKLLIYAASTLQSGVPSRFSGSGSGTEFTLTISSLQPEDFATYYCQHLNSYPLTFGGGTKVEIK
- Kd (Omicron BA.2 RBD [2]): 138 nM
- T1/2 (Omicron BA.2 RBD [2]): 3.2 min
- koff (Omicron BA.2 RBD [2]): 0.0036 s⁻¹
- kon (Omicron BA.2 RBD [2]): 26000 M⁻¹ s⁻¹

B3: Omi20 (antibody, V domains shown)
VH: EVQLVESGGGLVQPGGSLRLSCEASEITVSSNYMNWVRQAPGKGLEWVSVLFAGGTTYYADSVKGRFTISRDNSKNTLYLQMNTLRIEDTAIYYCARDLVAYGVDVWGQGTTVTVSS
VL: AIQMTQSPSFLSASVGDRVTITCRASQGISGDLAWYQQKPGKAPKLLIYAASTLQSGVPSRFSGSGSGTEFTLTISSLQPEDFATYYCQHLNSYPLTFGGGTKVEIK
- Kd (Omicron BA.2 RBD [3]): 2.4 nM
- T1/2 (Omicron BA.2 RBD [3]): 5.6 min
- koff (Omicron BA.2 RBD [3]): 0.0021 s⁻¹
- kon (Omicron BA.2 RBD [3]): 870000 M⁻¹ s⁻¹

B4: Omi12 (antibody, V domains shown)
VH: EVQLVESGPEVKKPGTSVKVSCKASGFSFSMSAMQWVRRARGQRLEWIGWIVPGSGNANYAQKFQERVTITRDESTNTGYMELSSLRSEDTAVYYCAAPHCNKTNCYDAFDIWGQGTMVTVSS
VL: AIRMTQSPGTLSLSPGERATLSCRASQSVRSSYLAWYQQKPGQAPRLLIYGASTRATGIPDRFSGSGSGTDFILTINRLEPEDLAVYYCQQFGSSPWTFGQGTKVDIK
- Kd (Omicron BA.2 RBD [4]): 0.13 nM
- T1/2 (Omicron BA.2 RBD [4]): 20 min
- koff (Omicron BA.2 RBD [4]): 0.00058 s⁻¹
- kon (Omicron BA.2 RBD [4]): 4.3e+06 M⁻¹ s⁻¹

B5: Omi03 (antibody, V domains shown)
VH: EVQLVESGGGLIQPGGSLRLSCAASEIIVSRNYMSWVRQAPGKGLEWVSVIYSGGSTFYADSVKGRFTISRDNSKNTLYLQMNSLRAEDTAVYYCARDLDVVGGTDYWGQGTLVTVSS
VL: not shown
- Kd (Omicron BA.2 RBD [5]): 4.4 nM
- T1/2 (Omicron BA.2 RBD [5]): 2.9 min

B6: Omi08 (antibody, V domains shown)
VH: EVQLVESGAEVKRPGASVKVSCKASGYTFTNYFMHWVRQAPGQGLEWMGVINPSDGGASYPQKFQGRVTMTRDTSTSTVYMDLSSLRSEDTAVYSCARGAFDVSGSWYVPFDYWGQGTLVTVSS
VL: QSVVTQPPSVSGAPGQRVTISCTGSSSNIGAGYDVHWYQQLPGAAPKLLIYGNTNRPSGVPDRFSGSKSGTSASLAITGLQAEDEADYYCQSYDITLSGSGYVFGTGTKVTVL
- binding result (Omicron BA.1 RBD): binds

B7: Omi30 (antibody, V domains shown)
VH: EVQLVESGAEVKKPGSSVKVSCKASGGTFSRYAISWVRQAPGQGLEWMGGIIPIFDATNYAQKFHDRVTITADKSASTAYMELSSLRSDDTAVYYCARERTYCSGGTCYGGYFYYGMDVWGQGTTVTVSS
VL: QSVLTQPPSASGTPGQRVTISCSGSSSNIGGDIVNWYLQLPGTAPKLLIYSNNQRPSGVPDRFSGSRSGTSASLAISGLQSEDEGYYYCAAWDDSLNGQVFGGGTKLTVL
- binding result (Omicron BA.1 RBD): binds

B8: Omi39 (antibody, V domains shown)
VH: QVQLVESGGVVVQPGGSLRLSCAASGFSFDDYSMHWVRQAPGKGLEWVSVIYWDGVSKYYADSVKGRFTISRDNSKNSLYLQMNSLRTEDTAVYYCAKDSEDCSSTSCYMDVWGKGTTVTVSS
VL: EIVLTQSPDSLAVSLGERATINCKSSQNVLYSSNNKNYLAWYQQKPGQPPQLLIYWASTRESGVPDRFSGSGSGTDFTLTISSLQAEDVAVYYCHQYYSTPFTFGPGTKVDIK
- binding result (Omicron BA.1 RBD): binds

B9: Omi-32 Fab (Fab, V domains shown)
VH: EVQLVESGGGVVQPGRSLRLSCAASGFTFSNYGMHWVRQAPGKGLEWVAVYWYDGGNKFYADSVKGRFTISRDNSKNTLYLQMNSLRVEDTAVYYCARDTAPPDYWGQGTLVTVSS
VL: AIRMTQSPGTLSLSPGERATLSCRASQSISSSFLAWYQQKPGQAPRLLIYGASSRATGIPDRFSGSGSGTDFTLTISRLEPEDFAVYYCQQYGTSPRLTFGGGTKVDIK
- Kd (Omicron BA.2 RBD [6]): 5.9 nM
- T1/2 (Omicron BA.2 RBD [6]): 71 min
- koff (Omicron BA.2 RBD [6]): 0.00016 s⁻¹
- kon (Omicron BA.2 RBD [6]): 27000 M⁻¹ s⁻¹

B10: Omi33 (antibody, V domains shown)
VH: EVQLLESGGGVVQPGRSLRLSCAASGFKFSDYGMHWVRQAPGKGLEWVAVYWYDGGTKFYADSVKGRFTISRDNSKNTLYLQMSSLRVEDTAVYYCARDTAPPDYWGQGTLVTVSS
VL: EIVLTQSPGTLSLSPGERATLSCRASQSISSNFLAWYQQKPGQAPRLLIYGASSRATGIPDRFSGSGSGTDFTLTISRLEPEDFAVYYCQQYGTSPRLTFGGGTKVDIK
- binding result (Omicron BA.1 RBD): binds

B11: Omi34 (antibody, V domains shown)
VH: QVQLVQSGAEVKKPGSSVKVSCKASGGTFSSYGIRWVRQAPGQGLEWMGGIIPVFGATNYAQKFQDRVTITADKSTATAYMELSSLKSDDTAVYFCARDALSASGWTGPFDSWGQGTLVTVSS
VL: QSVLTQPPSVSGAPGQRVTISCTGSSSNIGADYDVHWYQQLPGAAPKLLIYGNNNRPSGVPDRFSGSKSGTSASLAITGLQAEDEADYYCQSYDSSQNAFYVFGTGTKVTVL
- binding result (Omicron BA.1 RBD): binds

B12: Fab Beta-54 (Fab, V domains shown)
VH: QVQLQESGPGLVKPSETLSLTCTVFGGSITSSNHYWVWIRQPPGKGLEWIGSMYYSGSTAYNPSLTNRVTISVDTSKNQFSLKLSSVTAADTAVYYCARQIGPKRPSQVADWFDPWGQGTLVTVSS
VL: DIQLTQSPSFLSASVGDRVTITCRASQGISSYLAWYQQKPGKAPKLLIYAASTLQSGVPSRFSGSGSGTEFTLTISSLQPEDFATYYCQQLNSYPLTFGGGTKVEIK
- Kd (Omicron BA.2 RBD [7]): 44 nM
- T1/2 (Omicron BA.2 RBD [7]): 2.3 min
- koff (Omicron BA.2 RBD [7]): 0.005 s⁻¹
- kon (Omicron BA.2 RBD [7]): 110000 M⁻¹ s⁻¹

B13: Omi35 (antibody, V domains shown)
VH: QVQLVESGGGLVQPGRSLRLSCAASGFTFDDYAMHWVRQAPGKGLEWVSGSTWNSGTIDYADSVKGRFTISRDNAKNSLYLQMNSLRAEDTALYYCAKDRFRKGCSSTGCYKENYGMDVWGQGTTVTVSS
VL: QSVVTQPPSVSVAPGQTARITCGGTNIGSKSVHWYQQKPGQAPVLVVYDDSDRPSGIPERFSGSNSGNTATLTITWVEAGDEADYYCQVWDSSSDNVLFGGGTKLTVL
- binding result (Omicron BA.1 RBD): binds

B14: Omi31 (antibody, V domains shown)
VH: EVQLVQSGAEVKKPGSSVKVSCKASGGTFSSYGISWVRQAPGLGLEWMGGVIPILSAKHYAQRFQGRVTITADKSTGTAYMELSSLRSEDTAVYYCARDILHHDDLWGRFYYDGMDVWGQGTTVTVSS
VL: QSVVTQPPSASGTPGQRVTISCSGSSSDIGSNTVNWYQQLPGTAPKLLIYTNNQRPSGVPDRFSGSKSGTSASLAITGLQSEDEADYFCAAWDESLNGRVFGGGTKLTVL
- Kd (Omicron BA.2.12.1 RBD [8]): 4.1 nM
- T1/2 (Omicron BA.2.12.1 RBD [8]): 0.733 min
- koff (Omicron BA.2.12.1 RBD [8]): 0.016 s⁻¹
- kon (Omicron BA.2.12.1 RBD [8]): 3.8e+06 M⁻¹ s⁻¹
- Kd (Omicron BA.2 RBD [9]): 0.0032 nM
- T1/2 (Omicron BA.2 RBD [9]): 366 min
- koff (Omicron BA.2 RBD [9]): 3.1e-05 s⁻¹
- kon (Omicron BA.2 RBD [9]): 9.8e+06 M⁻¹ s⁻¹

B15: Omi02 (antibody, V domains shown)
VH: EVQLVESGAEVKKPGSSVKVSCKASGGTFSSYAINWVRQAPGQGLEWMGGIIPIFRTPHYAQKFQGRVTITADESTGTAYMELSSLRSEDTAVYYCASPSCGGDCPQYLKSSKLDWYFDLWGRGTLVTVSS
VL: VIWMTQSPGTLSLSPGERATLSCRASQSVSSTYLAWYQQKPGQAPRLLIYGASSRATGIPDRFSGSGSGTDFTLTISRLEPEDFAVYYCQHYGSSPLTFGQGTRLEIK
- binding result (Omicron BA.1 RBD): binds

B16: Omi38 (antibody, V domains shown)
VH: QVQLVESGAEVKKPGSSVKVSCKASGGNFNMYTISWVRQAPGRGLEWMGRFIPIANKANYAQNFPGRVTITADKSTSTVYMELRSLTSDDTAVYYCARSGSYDAFDVWGQGTMVTVSS
VL: AIRMTQSPSTLSASVGDRVTITCRASQTINSWLAWYQQKPGKAPKLLIYDASNLESGVPSRFSGSGSGTEFTLTISSLQPDDFATYYCQQYESYSPITFGQGTRLEIK
- binding result (Omicron BA.1 RBD): binds

B17: Omi-18 Fab (Fab, V domains shown)
VH: QVQLVESGGGLIQPGGSLRLSCAASGITVSSNYMTWVRQAPGKGLEWVSLLYAGGSAFYADSVKGRFTISRDNSKNTLYLLMNSLRVGDTAVYYCARDLQVYGMDVWGQGTTVTVSS
VL: SYELTQPPSVSVAPGQTARITCGGNNDGAKSVHWYQQKPGQAPVLVVYDDSDRPSGIPERFSGSNSGNTATLTITRIEAGDEADYYCQVWDSSRDHVFGTGTKVTVL
- Kd (Omicron BA.2 RBD [10]): 4.3 nM
- T1/2 (Omicron BA.2 RBD [10]): 20 min
- koff (Omicron BA.2 RBD [10]): 0.00057 s⁻¹
- kon (Omicron BA.2 RBD [10]): 130000 M⁻¹ s⁻¹

B18: Omi09 (antibody, V domains shown)
VH: QVQLVESGGGVVQPGRSLRLSCAASGFTFRTYAVHWVRQAPGKGPEWVAVISYDGSNKYYADSVKGRFTLSRDTSKNTLYLQMNSLRAEDTAVYYCASRGDTVTTGDAFDIWGQGTMVTVSS
VL: SYELTQPPSVSVSPGQTARITCSGDALPKQYTYWYQQKPGQPPVLVIYKDSERPSGIPERFSGSSSGTTVTLTISGVQAEDEADYYCQSTDSSATYPGNVVFGGGTKLTVL
- binding result (Omicron BA.1 RBD): binds

B19: Omi06 (antibody, V domains shown)
VH: EVQLLESGPGLVKPSETLSLTCTVSGGSISRYSWSWIRQPAGRGLEWIGRMYSSGGTNYNPSLESRVTMSLDTSKKQFSLKLSSVTAADTAVYYCAAASIDQVWGTYRDAFDIWGQGTMVTVSS
VL: AIRMTQSPSSLAASVGDRVTISCRAGQSISSFLHWYQQKVGKAPKLLIYDASSLQSGVPSRFSGSGSGTDFTLTISSLQPEDFAAYYCQQSYENPLTFGGGTKVDIK
- Kd (Omicron BA.2.12.1 RBD [11]): 19 nM
- Kd (Omicron BA.2 RBD [12]): 1.3 nM
- T1/2 (Omicron BA.2 RBD [12]): 0.983 min
- koff (Omicron BA.2 RBD [12]): 0.012 s⁻¹
- kon (Omicron BA.2 RBD [12]): 9e+06 M⁻¹ s⁻¹
